B1: CPEB3 Ribozyme (parent)
chain: GGGGGCCACAGCAGAAGCGUUCACGUCGCGGCCCCUGUCAGAUUCUGGUGAAUCUGCGAAUUCUGCUGU

In the data set the parent is B1. The experiment in a line: self-cleavage, relative activity (ratio to wild type); higher = more cleavage; co-transcriptional.
For the variant GGGGGCCACAGCAGAAGCGUUCAAGUCGCGGCCCCUGUCAGAUUCUGGUGAAUCUGCGAAUUCUGCUGA [C24A U69A], the self-cleavage came out at 0.825.
For GGGGGCCACAGCAGAAGCGUUCAAGUCGCGGCCCCUGUCAGAUUCUGGUGAAUCUGCGAAUUCUGCUGG [C24A U69G] the value was 0.866.
As for GGGGGCCACAGCAGAAGCGUUCAGGUCGCGGCUCCUGUCAGAUUCUGGUGAAUCUGCGAAUUCUGCUGU [C24G C33U], the self-cleavage was determined as 0.38.
To GGGGGCCACAGCAGAAGCGUUCAAGUCGCGGCCCCUGUCAGAUUCUGGUGAAUCUGCGAAUUCUGCAGU [C24A U67A] belongs 0.751; to GGGGGCCACAGCAGAAGCGUUCAAGUCGCGGCCCCUGUCAGAUUCUGGUGAAUCUGCGAAUUCUGCGGU [C24A U67G], 0.693.
To GGGGGCCACAGCAGAAGCGUUCAGGUCGCGGCCCCUGUCAGAUUCUGGUGAAUCUGCGAUUUCUGCUGU [C24G A60U] belongs 0.226; to GGGGGCCACAGCAGAAGCGUUCAGGUCGCGGCCCCUGUCAGAUUCUGGUGAAUCUGCGACUUCUGCUGU [C24G A60C], 0.205.
To GGGGGCCACAGCAGAAGCGUUCAGGUGGCGGCCCCUGUCAGAUUCUGGUGAAUCUGCGAAUUCUGCUGU [C24G C27G] belongs 0.192.
As to GGGGGCCACAGCAGAAGCGUUCAGGUAGCGGCCCCUGUCAGAUUCUGGUGAAUCUGCGAAUUCUGCUGU [C24G C27A], the self-cleavage is 0.201.
For the variant GGGGGCCACAGCAGAAGCGUUCAGGUUGCGGCCCCUGUCAGAUUCUGGUGAAUCUGCGAAUUCUGCUGU [C24G C27U], the self-cleavage stood at 0.149.
To GGGGGCCACAGCAGAAGCGUUCAGGUCGCGGCCCCUGUCAGGUUCUGGUGAAUCUGCGAAUUCUGCUGU [C24G A42G] belongs 0.404; to GGGGGCCACAGCAGAAGCGUUCAGGUCGCGGCCCCUGUCAGUUUCUGGUGAAUCUGCGAAUUCUGCUGU [C24G A42U], 0.418; to GGGGGCCACAGCAGAAGCGUUCAAGUCGCGGCCCCUGUCAGAUUCCGGUGAAUCUGCGAAUUCUGCUGU [C24A U46C], 0.754.
In the case of GGGGGCCACAGCAGAAGCGUUCAAGUCGCGGCCCCUGUCAGAUUCGGGUGAAUCUGCGAAUUCUGCUGU [C24A U46G], the self-cleavage is 0.816.
To GGGGGCCACAGCAGAAGCGUUCAAGUCGCGGCCCCUGUCAGAUUCUGGUGAACCUGCGAAUUCUGCUGU [C24A U53C] belongs 0.603.
Turning to GGGGGCCACAGCAGAAGCGUUCAAGUCGCGGCCCCUGUCAGAUUCUGGUGAAACUGCGAAUUCUGCUGU [C24A U53A], the self-cleavage came to 0.537.
To GGGGGCCACAGCAGAAGCGUUCAAGUCGCGGCCCCUGUCAGAUUCUGGUGAAGCUGCGAAUUCUGCUGU [C24A U53G] belongs 0.506; to GGGGGCCACAGCAGAAGCGUUCAGGUCGCGGCCCCUGUCAGAUUCUGGUGAAUCUGCGUAUUCUGCUGU [C24G A59U], 0.225; to GGGGGCCACAGCAGAAGCGUUCAGGUCGCGGCCCCUGUCAGAUUCUGGUGAAUCUGCGCAUUCUGCUGU [C24G A59C], 0.141.
For GGGGGCCACAGCAGAAGCGUUCAGGUCGCGGCCCCUGUCAGAUUCUGGUGAAUCUGCGGAUUCUGCUGU [C24G A59G], the self-cleavage is 0.518.
Consider GGGGGCCACAGCAGAAGCGUUCAAGUCGCGGCCCCUGUCAGAUUCUGGAGAAUCUGCGAAUUCUGCUGU [C24A U49A], for which the self-cleavage came to 0.815.
In the case of GGGGGCCACAGCAGAAGCGUUCAAGUCGCGGCCCCUGUCAGAUUCUGGUGAAUCUGCGAACUCUGCUGU [C24A U61C], the self-cleavage came out at 0.374.
Consider GGGGGCCACAGCAGAAGCGUUCAGGUCGCGGCCCGUGUCAGAUUCUGGUGAAUCUGCGAAUUCUGCUGU [C24G C35G], for which the self-cleavage came out at 0.116.
Regarding GGGGGCCACAGCAGAAGCGUUCAGGUCGCGGCCCCUGUCCGAUUCUGGUGAAUCUGCGAAUUCUGCUGU [C24G A40C], the self-cleavage stood at 0.198.
To GGGGGCCACAGCAGAAGCGUUCAGGUCGCGGCCCCUGUCGGAUUCUGGUGAAUCUGCGAAUUCUGCUGU [C24G A40G] belongs 0.363.
Take GGGGGCCACAGCAGAAGCGUUCAGGUCGCGGCCCCUGUCAGAUUCUGGUGCAUCUGCGAAUUCUGCUGU [C24G A51C]: the self-cleavage came out at 0.323.
As to GGGGGCCACAGCAGAAGCGUUCAGGUCGCGGCCCCUGUCAGAUUCUGGUGGAUCUGCGAAUUCUGCUGU [C24G A51G], the self-cleavage came to 0.515.
To GGGGGCCACAGCAGAAGCGUUCAGGUCGCGGCCACUGUCAGAUUCUGGUGAAUCUGCGAAUUCUGCUGU [C24G C34A] belongs 0.271; to GGGGGCCACAGCAGAAGCGUUCAGGUCGCGGCCUCUGUCAGAUUCUGGUGAAUCUGCGAAUUCUGCUGU [C24G C34U], 0.57.
In the case of GGGGGCCACAGCAGAAGCGUUCAGGUCGCGGCCGCUGUCAGAUUCUGGUGAAUCUGCGAAUUCUGCUGU [C24G C34G], the self-cleavage turned out to be 0.184.
To GGGGGCCACAGCAGAAGCGUUCAGGUCGCGGCCCCUGUCAGAUUCUGGUGAAUCUGCGAAUUCUGCUGU [C24G] belongs 0.499; to GGGGGCCACAGCAGAAGCGUUCAGGUCGCGGGCCCUGUCAGAUUCUGGUGAAUCUGCGAAUUCUGCUGU [C24G C32G], 0.239.
For the variant GGGGGCCACAGCAGAAGCGUUCAGGUCGCGGUCCCUGUCAGAUUCUGGUGAAUCUGCGAAUUCUGCUGU [C24G C32U], the self-cleavage came out at 0.435.
To GGGGGCCACAGCAGAAGCGUUCAAGUCGCGGCCCCUGUCAGAUUCUGGUGAAUCUGCGAAUCCUGCUGU [C24A U62C] belongs 0.402; to GGGGGCCACAGCAGAAGCGUUCAAGUCGCGGCCCCUGUCAGAUUCUGGUGAAUCUGCGAAUACUGCUGU [C24A U62A], 0.364; to GGGGGCCACAGCAGAAGCGUUCAGGUCGAGGCCCCUGUCAGAUUCUGGUGAAUCUGCGAAUUCUGCUGU [C24G C29A], 0.184.
For GGGGGCCACAGCAGAAGCGUUCAAGUCGCGGCCCCUGUCAGAUUCUGGUGAAUCUGCGAAUUCAGCUGU [C24A U64A] the value was 0.492; for GGGGGCCACAGCAGAAGCGUUCAAGUCGCGGCCCCUGUCAGAUUCUGGUGAAUCGGCGAAUUCUGCUGU [C24A U55G], 0.289; for GGGGGCCACAGCAGAAGCGUUCAGGUCGCGGCCCCUGUCAGAUUCUGGUGAGUCUGCGAAUUCUGCUGU [C24G A52G], 0.527.

Source of the values: the RNAGym collection of RNA variant scans (doi:10.7554/elife.80360).
